This is an account of results in US20140348834A1 (published 2014).

Residue numbers refer to the chain shown, from its start.

In general, Kd refers to the constant that tells how readily two partners part at equilibrium. Lower therefore signals higher affinity. For orientation: koff means the first-order rate constant of dissociation. The low end stands for a long-lived complex, the high end for a short-lived complex. In general, kon refers to a measure of how fast the partners come together. Lower therefore signals slow association. In general, EC50 refers to the concentration that produces a half-maximal response. Low readings indicate an effect from little substance, high ones a need for much substance.

The labels stand for the following.
B1: IL17-TN-L7-G9 (antibody, V domains shown)
VH: EVQLLESGGGVVQPGRSLRLSCAASGFIFSNYGMHWVRQAPGKGLEWVAVISYDGSNKYYADSVKGRFTISRDNSKNTLYLEMNSLRPEDTAVYYCAKVGASGDYYYSYGLDVWGQGTTVTVSS
VL: QSGLTQPPSASGTPGQTVSISCSGSNSNIGSHSVNWYQQVPGAAPKLLMYGIGQRPSGVPDRFSVSQSGTSASLAISGLQSEDEADYYCATWDDSLGGYVFGSGTKVTVLG
notes: Fully human antibody
B2: IL17-G9-M1 (antibody, V domains shown)
VH: B1 VH with S56G, N57Y, V99L, G100S, A101L, L111F, V113G
VL: B1 VL with G3V, N26K, S33Y, N35H, G51D, I52F, V65G, A90G, S95W, S103T
B3: IL17-G9-4 (antibody, V domains shown)
VH: B1 VH
VL: QSVLTQPPSASGTPGQTVSISCSGRQSNIGRHYVDWYQQVPGAAPKLLMYYDSIRPSGVPDRFSGSQSGTSASLAISGLQSEDEADYYCATWDDSLGGYVFGSGTKVTVLG
notes: converted into IgG
B4: IL17-G9-M2 (antibody, V domains shown)
VH: B1 VH
VL: QSVLTQPPSASGTPGQTVSISCSGHNSNIGYHYVHWYQQVPGAAPKLLIYGDGWRPSGVPDRFSGSQSGTSASLAISGLQSEDEADYYCGTWDDWLGGYVFGTGTKVTVLG
notes: converted into IgG
B5: IL17-G9-2 (antibody, V domains shown)
VH: B1 VH with S30R
VL: B3 VL with R25S, Q26N, Y33P, M49I, S53D, I54Q
B6: IL17-G9-1 (antibody, V domains shown)
VH: B1 VH
VL: B3 VL with R25S, Q26H, Y33P, D52G, S53G, I54Y, S95R, G97V
B7: IL17-h5C5.12 (antibody, V domains shown)
VH: EVQLVQSGAEVKKPGASVKVSCKASGYTFTDYEFHWVRQAPGQGLEWIGVIHPGNGGTAYNQNFRDRATLTADKSTSTAYMELSSLRSEDTAVYYCTRFLTYEGYFDYWGQGTLVTVSS
VL: EIVMTQSPATLSVSPGERATLSCKASQSVSIDVGWYQQKPGQAPRLLIYHASNRYTGIPARFSGSGSGTDFTLTISSLQPEDFAVYYCQQDYSSPYTFGQGTKLEIKR
notes: IgG; constant regions not specified
B8: IL17-h5C5.13 (antibody, V domains shown)
VH: QVQLQQSGAELVRPGASVKLSCKALGYTFTDYEFHWVKQTPVHGLEWIGVIHPGNGGTAYNQNFRDKATLTADKSSSTAYMELSSLTSEDSGVYYCTRFLTYEGYFDYWGQGTALTVSS
VL: B7 VL with Y36F, A43S, I58V, Y87F
notes: as for B7
B9: IL17-h5C5.10 (antibody, V domains shown)
VH: B8 VH
VL: B7 VL
notes: as for B7
B10: IL17-h5C5.17 (antibody, V domains shown)
VH: B7 VH with I48M, A68V, L70I, T97A
VL: NIVMTQSPSSLSASVGDRVTITCKASQSVSIDVGWFQQKPGKSPKLLIYHASNRYTGVPSRFSGSGSGTDFTFTISSLQPEDFATYFCQQDYSSPYTFGQGTKLEIKR
notes: as for B7
B11: IL17-h5C5.5 (antibody, V domains shown)
VH: B7 VH with I48M, A68V, L70I, T97A
VL: B10 VL with N1D, V3Q, F36Y, S43A, F87Y
notes: as for B7
B12: IL17-h5C5.6 (antibody, V domains shown)
VH: B7 VH
VL: B10 VL with N1D, V3Q, F36Y, S43A, F87Y
notes: as for B7
B13: IL17-h10F7.5 (antibody, V domains shown)
VH: EVQLVQSGAEVKKPGSSVKVSCKASGYTFTDYEIHWVRQAPGQGLEWMGVNDPESGGTFYNQKFDGRVTITADKSTSTAYMELSSLRSEDTAVYYCARYYRYESFYGMDYWGQGTTVTVSS
VL: DIQLTQSPSSLSASVGDRVTITCSASSSISYIYWFQQKPGKSPKRWIYATFELASGVPSRFSGSGSGTDYTLTISSLQPEDFATYYCHQRSSYPWTFGQGTKLEIKR
notes: as for B7
B14: IL17-h10F7.1 (antibody, V domains shown)
VH: B13 VH with M48I, V68A, I70L, A97T
VL: QIVLTQSPAIMSASPGEKVTMTCSASSSISYIYWFQQKPGTSPKRWIYATFELASGVPARFSGSGSGTSYSLTISSMEAEDAATYYCHQRSSYPWTFGGGSKLEIKR
notes: Cloned into IgG expression vectors; constant regions not specified
B15: IL17-h10F7.10 (antibody, V domains shown)
VH: B13 VH
VL: EIVLTQSPDFQSVTPKEKVTITCSASSSISYIYWFQQKPDQSPKRWIYATFELASGVPSRFSGSGSGTDYTLTINSLEAEDAATYYCHQRSSYPWTFGQGTKLEIKR
notes: as for B7
B16: IL17-h10F7.7 (antibody, V domains shown)
VH: B13 VH
VL: B15 VL with F35Y, R45L, W46L, Y48K, Y70F
notes: as for B7
B17: IL17-h10F7.14 (antibody, V domains shown)
VH: B13 VH
VL: B13 VL with D1E, Q3V
notes: as for B7
B18: IL17-h10F7.12 (antibody, V domains shown)
VH: B13 VH
VL: B13 VL with D1Q, Q3V
notes: as for B7
B19: IL17-h10F7.16 (antibody, V domains shown)
VH: B13 VH
VL: B15 VL with E1Q
notes: as for B7
B20: IL17-h10F7.3 (antibody, V domains shown)
VH: B13 VH with M48I, V68A, I70L, A97T
VL: B13 VL with L4M, F35Y, S42A, W46L, Y70F
notes: as for B7
B21: IL17-h10F7.8 (antibody, V domains shown)
VH: B13 VH with M48I, V68A, I70L, A97T
VL: B15 VL with F35Y, R45L, W46L, Y48K, Y70F
notes: as for B7
B22: IL17-h5C5.1 (antibody, V domains shown)
VH: B8 VH
VL: NIVMTQTPKFLLVSPGDRVTITCKASQSVSIDVGWFQQKPGQSPKLLIYHASNRYTGVPDRFTGSGYGTDFTFTVNTVQAEDLAVYFCQQDYSSPYTFGGGTKLELKR
notes: as for B7
B23: IL17-h5C5.7 (antibody, V domains shown)
VH: B8 VH
VL: B10 VL with N1D, V3Q
notes: as for B7
B24: IL17-h5C5.16 (antibody, V domains shown)
VH: B8 VH
VL: B10 VL
notes: as for B7

The target in one assay is T1, human IL-17A/F (human, UniProt Q16552 24-155; Q96PD4 31-163).
T1 construct: Heterodimer of IL-17A and IL-17F, purified recombinant; also called HuIL-17A/F; Hu IL-17A/F
T1 sequence (Q16552 24-155 limits assumed, chain 1 of 2): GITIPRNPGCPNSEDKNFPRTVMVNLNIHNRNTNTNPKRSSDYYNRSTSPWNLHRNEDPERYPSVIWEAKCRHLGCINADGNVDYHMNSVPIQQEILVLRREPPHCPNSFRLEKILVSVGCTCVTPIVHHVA
T1 sequence (Q96PD4 31-163 limits assumed, chain 2 of 2): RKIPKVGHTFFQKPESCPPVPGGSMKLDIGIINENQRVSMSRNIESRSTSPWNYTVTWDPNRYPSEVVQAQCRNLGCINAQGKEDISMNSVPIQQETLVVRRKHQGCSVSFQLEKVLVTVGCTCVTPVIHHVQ
The assay is described as follows: SPR Biacore, captured binder. A general note: SPR reads the build-up and loss of mass on a sensor chip optically.
Method: (§1) The binding of antibodies to purified recombinant human, cyno, rat, mouse, rabbit IL-17 and human IL-17A/F were determined by surface plasmon resonance-based measurements with a Biacore® 3000 instrument (Biacore® AB, Uppsala, Sweden) using running HBS-EP (10 mM HEPES [pH 7.4], 150 mM NaCl, 3 mM EDTA, and 0.005% surfactant P20) at 25° C. […] Approximately 5000 RU of goat anti-mouse or anti-human IgG (Fcγ) fragment specific polyclonal antibody (Pierce Biotechnology Inc, Rockford, Ill.) diluted in 10 mM sodium acetate (pH 4.5) was directly immobilized across a CM5 research grade biosensor chip using a standard amine coupling kit according to manufacturer's instructions and procedures at 25 μg/ml. Unreacted moieties on the biosensor surface were blocked with ethanolamine. Modified carboxymethyl dextran surface in flowcell 2 and 4 was used as a reaction surface. Unmodified carboxymethyl dextran without goat anti-mouse or anti-human IgG in flow cell 1 and 3 was used as the reference surface. For kinetic analysis, rate equations derived from the 1:1 Langmuir binding model were fitted simultaneously to association and dissociation phases of all eight injections (using global fit analysis) with the use of Biaevaluation 4.0.1 software. Purified antibodies were diluted in HEPES-buffered saline for capture across goat anti-mouse or anti-human IgG specific reaction surfaces. Antibodies to be captured as a ligand (25 μg/ml) were injected over reaction matrices at a flow rate of 5 μl/min. The association and dissociation rate constants, kon (unit M-1s-1) and koff (unit s-1) were determined under a continuous flow rate of 25 μl/min. Rate constants were derived by making kinetic binding measurements at ten different antigen concentrations ranging from 10 nM to 200 nM. The equilibrium dissociation constant (unit M) of the reaction between antibodies and recombinant purified IL-17 antigens was then calculated from the kinetic rate constants by the following formula: KD=koff/kon. Binding was recorded as a function of time and kinetic rate constants are calculated. In this assay, on-rates as fast as 10⁶ M⁻¹ s⁻¹ and off-rates as slow as 10⁻⁶ s⁻¹ can be measured.
Consider B1, for which the affinity, expressed as Kd, was 907 pM; the koff was 9.7e-05 s⁻¹; the kon was 107000 M⁻¹ s⁻¹.
For B2, in that order: 244 pM, 3.95e-05 s⁻¹ and 162000 M⁻¹ s⁻¹.
Molecule B3 registered a Kd of 4.24 pM, a koff of 1e-06 s⁻¹ and a kon of 236000 M⁻¹ s⁻¹.
Take B4: the Kd worked out at 10.3 pM, the koff is 1.41e-06 s⁻¹ and the kon came out at 137000 M⁻¹ s⁻¹.
B5: the affinity, expressed as Kd, was 437 pM; the koff was determined as 8.66e-05 s⁻¹; the kon was determined as 198000 M⁻¹ s⁻¹.
For the molecule B6, binding was put at a Kd of 3.13 pM, the koff turned out to be 1e-06 s⁻¹ and the kon was determined as 320000 M⁻¹ s⁻¹.

The target of a further assay is T2, human IL-17A (human, UniProt Q16552 24-155).
T2 construct: Purified recombinant; biotinylated in the ELISA; also called HuIL-17A; Hu IL-17A
The assay can be described thus: SPR Biacore, captured binder.
T2 sequence (Q16552 24-155 limits assumed): as the sequence (Q16552 24-155 limits assumed, chain 1 of 2) above
Method: as §1
B1: binding was characterised by a dissociation constant (Kd) of 280 pM, the koff is 8.65e-05 s⁻¹ and the kon was 309000 M⁻¹ s⁻¹.
Consider B2, for which the Kd is 3.22 pM, the koff was 1e-06 s⁻¹ and the kon was determined as 311000 M⁻¹ s⁻¹.
On to B3, for which the Kd was determined as 4.69 pM, the koff amounted to 1e-06 s⁻¹ and the kon stood at 213000 M⁻¹ s⁻¹.
For the molecule B4, the affinity, expressed as Kd, was 8.26 pM; the off-rate constant (koff) is 2.32e-06 s⁻¹; the kon is 281000 M⁻¹ s⁻¹.
Consider B5, for which the Kd is less than 4.33 pM, the koff was less than 1e-06 s⁻¹ and the kon was determined as 231000 M⁻¹ s⁻¹.
In the case of B6, the Kd is 25.7 pM, the koff worked out at 1.05e-05 s⁻¹ and the kon stood at 408000 M⁻¹ s⁻¹.

A further assay deals with cyno IL-17A (cynomolgus monkey, UniProt A0A2K5TTB0 24-155). The assay can be described thus: SPR Biacore, captured binder.
cyno IL-17A, sequence (A0A2K5TTB0 entry or part of it): as the sequence (Q16552 24-155 limits assumed, chain 1 of 2) above, with T3A, P8S, N34S, I77V, N78K, P104R counted along it
Method: as §1
Turning to B1, the affinity, expressed as Kd, was 2070 pM; the koff worked out at 0.000199 s⁻¹; the kon was 96000 M⁻¹ s⁻¹.
In the case of B2, the affinity, expressed as Kd, was 2.65 pM; the koff was found to be 1e-06 s⁻¹; the kon was 377000 M⁻¹ s⁻¹.
Regarding B3, the Kd was found to be 3.77 pM, the koff turned out to be 1e-06 s⁻¹ and the kon is 265000 M⁻¹ s⁻¹.
The molecule B4 displayed a Kd of less than 2.45 pM, a koff of less than 1e-06 s⁻¹ and a kon of 408000 M⁻¹ s⁻¹.
B5: the Kd is less than 2.7 pM, the koff was less than 1e-06 s⁻¹ and the kon turned out to be 371000 M⁻¹ s⁻¹.
For B6 the same measures were 2.96 pM, 1e-06 s⁻¹ and 338000 M⁻¹ s⁻¹.

Another assay concerns the target T3, human IL-17A (human, UniProt Q16552 24-155).
T3 construct: Recombinant; biotinylated in the ELISA; also called hIL-17; hIL17A
The assay is described as follows: hIL17A ELISA. A general note: ELISA stands for enzyme-linked immunosorbent assay.
T3 sequence (Q16552 24-155): as the sequence (Q16552 24-155 limits assumed, chain 1 of 2) above
B7 displayed an EC50 of 230 pM.
Molecule B8 returned an EC50 of 30 pM.
On to B9, for which the EC50 worked out at 50 pM.
In turn, B10 yielded an EC50 of 30 pM.
B11: the EC50 worked out at 50 pM.
As to B12, the EC50 was 110 pM.
The molecule B13 displayed an EC50 of 60 pM.
Consider B14, for which the midpoint of the response, the EC50, lay at 1700 pM.
In turn, B15 registered a concentration for a half-maximal effect (EC50) of 40 pM.
With B16, the EC50 is 50 pM.
Regarding B17, the EC50 came out at 130 pM.
B18 displayed a 50% effective concentration (EC50) of 140 pM.
Turning to B19, the EC50 worked out at 90 pM.
In turn, B20 gave an EC50 of 50 pM.
B21 came in with an EC50 of 3900 pM.
B22 registered an EC50 of 1000 pM.
B23 yielded an EC50 of 30 pM.
As for B24, it took 20 pM to reach a half-maximal effect (EC50).
